Columns and labels:
[1] = biological target: T1, PARP1-ΔBRCT (human, UniProt P09874 1-1014, del367-494); test: EMSA; Table 2 value not in material; 25 mM Tris pH 7.5, 75 mM NaCl, 50 mM arginine, 0.1 mM TCEP, 0.1 ug/ul BSA, room temperature 30 min; 0.05 uM probe, 0-2.5 uM protein; native 10% PAGE in TBE; conditions: protein: recombinant; tags: His; chain copies: 2; label: 5'-32P; single strand
[2] = biological target: T2, PARP1-ΔWGR (human, UniProt P09874 1-1014, del518-654); test: EMSA; affinity not significantly changed from FL; Table 2 value not in material; 25 mM Tris pH 7.5, 75 mM NaCl, 50 mM arginine, 0.1 mM TCEP, 0.1 ug/ul BSA, room temperature 30 min; 0.05 uM probe, 0-2.5 uM protein; native 10% PAGE in TBE; conditions: protein: recombinant; tags: His; chain copies: 2; label: 5'-32P; single strand
T2 sequence (P09874 other isoform, or with tags, fused parts or gaps del518-654 | mutant): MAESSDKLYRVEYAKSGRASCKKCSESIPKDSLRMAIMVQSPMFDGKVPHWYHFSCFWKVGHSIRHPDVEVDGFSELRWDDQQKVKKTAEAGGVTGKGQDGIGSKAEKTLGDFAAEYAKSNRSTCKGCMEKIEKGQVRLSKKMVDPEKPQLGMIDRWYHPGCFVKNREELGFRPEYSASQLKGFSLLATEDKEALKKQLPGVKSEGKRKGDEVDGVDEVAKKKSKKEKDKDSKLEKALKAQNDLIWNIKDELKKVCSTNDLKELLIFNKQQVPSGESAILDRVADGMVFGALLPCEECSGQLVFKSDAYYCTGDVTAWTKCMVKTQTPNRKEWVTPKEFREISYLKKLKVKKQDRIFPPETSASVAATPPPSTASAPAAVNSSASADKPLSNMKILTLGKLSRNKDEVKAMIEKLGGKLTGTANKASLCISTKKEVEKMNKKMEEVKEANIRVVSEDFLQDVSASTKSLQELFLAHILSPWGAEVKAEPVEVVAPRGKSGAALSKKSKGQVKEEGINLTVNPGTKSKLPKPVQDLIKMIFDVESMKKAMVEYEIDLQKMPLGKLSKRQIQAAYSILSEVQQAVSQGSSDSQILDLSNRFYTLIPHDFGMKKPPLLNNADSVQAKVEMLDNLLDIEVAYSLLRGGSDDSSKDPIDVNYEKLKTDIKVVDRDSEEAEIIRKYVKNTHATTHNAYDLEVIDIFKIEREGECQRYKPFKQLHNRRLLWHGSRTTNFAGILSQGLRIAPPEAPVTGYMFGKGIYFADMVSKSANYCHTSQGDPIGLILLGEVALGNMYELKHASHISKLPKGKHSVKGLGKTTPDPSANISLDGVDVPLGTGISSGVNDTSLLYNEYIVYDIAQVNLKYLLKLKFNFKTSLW

[3] = biological target: T3, PARP1-ΔZn3 (human, UniProt P09874 1-1014, del232-374); test: EMSA; lowest affinity, within 2-3 fold of FL; Table 2 value not in material; 25 mM Tris pH 7.5, 75 mM NaCl, 50 mM arginine, 0.1 mM TCEP, 0.1 ug/ul BSA, room temperature 30 min; 0.05 uM probe, 0-2.5 uM protein; native 10% PAGE in TBE; conditions: protein: recombinant; tags: His; chain copies: 2; label: 5'-32P; single strand
T3 sequence (P09874 other isoform, or with tags, fused parts or gaps del232-374 | mutant): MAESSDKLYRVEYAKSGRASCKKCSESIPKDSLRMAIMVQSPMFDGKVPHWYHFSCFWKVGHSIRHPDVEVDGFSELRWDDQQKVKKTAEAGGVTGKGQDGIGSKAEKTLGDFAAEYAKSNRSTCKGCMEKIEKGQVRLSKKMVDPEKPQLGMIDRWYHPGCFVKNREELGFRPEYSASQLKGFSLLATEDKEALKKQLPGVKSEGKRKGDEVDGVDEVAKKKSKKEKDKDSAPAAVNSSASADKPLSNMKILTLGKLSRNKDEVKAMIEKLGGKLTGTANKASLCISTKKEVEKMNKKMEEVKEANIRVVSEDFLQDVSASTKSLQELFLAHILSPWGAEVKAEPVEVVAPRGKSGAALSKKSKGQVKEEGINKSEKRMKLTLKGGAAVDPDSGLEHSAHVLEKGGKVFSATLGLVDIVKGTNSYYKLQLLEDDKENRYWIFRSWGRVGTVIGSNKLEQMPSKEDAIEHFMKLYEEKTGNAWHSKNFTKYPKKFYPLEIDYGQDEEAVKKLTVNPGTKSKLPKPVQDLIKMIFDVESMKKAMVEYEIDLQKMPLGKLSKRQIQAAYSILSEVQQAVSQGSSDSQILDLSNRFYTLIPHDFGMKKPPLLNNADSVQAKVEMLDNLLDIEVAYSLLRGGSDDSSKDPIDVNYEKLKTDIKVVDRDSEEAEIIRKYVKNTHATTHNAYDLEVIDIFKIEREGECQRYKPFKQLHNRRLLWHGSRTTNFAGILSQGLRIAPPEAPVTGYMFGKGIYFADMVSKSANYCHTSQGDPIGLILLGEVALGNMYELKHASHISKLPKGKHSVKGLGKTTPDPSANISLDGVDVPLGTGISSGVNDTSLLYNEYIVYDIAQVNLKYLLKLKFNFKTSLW

[4] = biological target: T3, PARP1-ΔZn3; test: EMSA; monomer-equivalent K, n=1.41±0.08; 25 mM Tris pH 7.5, 75 mM NaCl, 50 mM arginine, 0.1 mM TCEP, 0.1 ug/ul BSA, room temperature 30 min; 0.05 uM probe, 0-2.5 uM protein; native 10% PAGE in TBE; conditions: protein: recombinant; tags: His; chain copies: 2; label: 32P; single strand
[5] = biological target: T1, PARP1-ΔBRCT; test: EMSA; monomer-equivalent K, n=2.23±0.10; 25 mM Tris pH 7.5, 75 mM NaCl, 50 mM arginine, 0.1 mM TCEP, 0.1 ug/ul BSA, room temperature 30 min; 0.05 uM probe, 0-2.5 uM protein; native 10% PAGE in TBE; conditions: protein: recombinant; tags: His; chain copies: 2; label: 32P; single strand
[6] = biological target: T2, PARP1-ΔWGR; test: EMSA; monomer-equivalent K, n=1.04±0.11; 25 mM Tris pH 7.5, 75 mM NaCl, 50 mM arginine, 0.1 mM TCEP, 0.1 ug/ul BSA, room temperature 30 min; 0.05 uM probe, 0-2.5 uM protein; native 10% PAGE in TBE; conditions: protein: recombinant; tags: His; chain copies: 2; label: 32P; single strand
[7] = biological target: T3, PARP1-ΔZn3; test: competition EMSA; vs N1 in same reaction; 25 mM Tris pH 7.5, 75 mM NaCl, 50 mM arginine, 0.1 mM TCEP, 0.1 ug/ul BSA, room temperature 30 min; 0.05 uM probe, 0-2.5 uM protein; native 10% PAGE in TBE; conditions: protein: recombinant; tags: His; label: 32P; single strand
[8] = biological target: T2, PARP1-ΔWGR; test: as above; conditions: protein: recombinant; tags: His; label: 32P; single strand
[9] = biological target: T1, PARP1-ΔBRCT; test: as above; conditions: protein: recombinant; tags: His; label: 32P; single strand
[10] = biological target: T3, PARP1-ΔZn3; test: EMSA; monomer-equivalent K, n=2.17±0.12; 25 mM Tris pH 7.5, 75 mM NaCl, 50 mM arginine, 0.1 mM TCEP, 0.1 ug/ul BSA, room temperature 30 min; 0.05 uM probe, 0-2.5 uM protein; native 10% PAGE in TBE; conditions: protein: recombinant; tags: His; chain copies: 2; label: 32P; single strand
[11] = biological target: T1, PARP1-ΔBRCT; test: EMSA; monomer-equivalent K, n=1.94±0.11; 25 mM Tris pH 7.5, 75 mM NaCl, 50 mM arginine, 0.1 mM TCEP, 0.1 ug/ul BSA, room temperature 30 min; 0.05 uM probe, 0-2.5 uM protein; native 10% PAGE in TBE; conditions: protein: recombinant; tags: His; chain copies: 2; label: 32P; single strand
[12] = biological target: T2, PARP1-ΔWGR; test: EMSA; monomer-equivalent K, n=2.13±0.07; 25 mM Tris pH 7.5, 75 mM NaCl, 50 mM arginine, 0.1 mM TCEP, 0.1 ug/ul BSA, room temperature 30 min; 0.05 uM probe, 0-2.5 uM protein; native 10% PAGE in TBE; conditions: protein: recombinant; tags: His; chain copies: 2; label: 32P; single strand

T1 sequence (P09874 other isoform, or with tags, fused parts or gaps del367-494 | mutant): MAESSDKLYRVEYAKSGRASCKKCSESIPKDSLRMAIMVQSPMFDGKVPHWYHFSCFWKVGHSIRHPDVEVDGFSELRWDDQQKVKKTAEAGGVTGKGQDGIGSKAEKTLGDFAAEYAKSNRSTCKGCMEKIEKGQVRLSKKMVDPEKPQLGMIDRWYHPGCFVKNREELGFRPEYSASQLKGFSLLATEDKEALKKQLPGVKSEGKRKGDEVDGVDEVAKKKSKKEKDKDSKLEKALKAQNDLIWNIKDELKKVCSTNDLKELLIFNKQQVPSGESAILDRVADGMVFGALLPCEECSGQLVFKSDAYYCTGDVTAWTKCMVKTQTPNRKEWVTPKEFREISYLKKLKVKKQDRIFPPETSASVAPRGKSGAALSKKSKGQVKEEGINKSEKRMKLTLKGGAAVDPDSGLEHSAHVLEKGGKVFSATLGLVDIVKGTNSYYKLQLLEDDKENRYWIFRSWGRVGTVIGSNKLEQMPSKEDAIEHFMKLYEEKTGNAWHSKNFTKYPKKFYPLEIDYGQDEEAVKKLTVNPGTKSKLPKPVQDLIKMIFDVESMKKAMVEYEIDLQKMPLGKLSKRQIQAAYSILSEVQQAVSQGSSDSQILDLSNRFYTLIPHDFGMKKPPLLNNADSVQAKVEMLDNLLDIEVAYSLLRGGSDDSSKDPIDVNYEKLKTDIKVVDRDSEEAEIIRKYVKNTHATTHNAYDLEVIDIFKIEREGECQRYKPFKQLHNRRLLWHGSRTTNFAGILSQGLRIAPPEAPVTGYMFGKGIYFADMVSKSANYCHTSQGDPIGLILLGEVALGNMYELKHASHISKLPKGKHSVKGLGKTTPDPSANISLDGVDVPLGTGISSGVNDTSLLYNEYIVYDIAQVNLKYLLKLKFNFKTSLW

UAGGCACCGGCAUCUUGAC (ssRNA) [19-mer ssRNA]: binds [1]; binds [2]; binds [3].

For CGUACGCGGAAUAGUUUAAACUGU (ssRNA) [24-mer ssRNA], the Ka [4] was 1.86e+06 M⁻¹, the Ka [5] was 2.38e+06 M⁻¹ and the Ka [6] was 3.4e+06 M⁻¹.

TAGGCACCGGCATCTTGAC (ssDNA) [19-mer ssDNA] was tested, and the binding signal [7] was 23.1 ± 5.2 KDNA/KRNA, the binding signal [8] was 26.5 ± 2.4 KDNA/KRNA and the binding signal [9] was 42.3 ± 1.2 KDNA/KRNA.

For CCGUACGCGGGUUUAAACGA (ssRNA) [20-mer ssRNA], the Ka [10] was 1.3e+06 M⁻¹, the Ka [11] was 1.19e+06 M⁻¹ and the Ka [12] was 1.46e+06 M⁻¹.

From publication PMC5787697, “Transcriptome-wide identification of the RNA-binding landscape of the chromatin-associated protein PARP1 reveals functions in RNA biogenesis”
